Laboratory results as given in publication PMC7536395.

What was measured:
[1] = biological target: T1, endogenous mouse GIPR (mouse (endogenous in primary mouse adipocytes and Neuro-2a cells)) (UniProt Q0P543)
T1 sequence: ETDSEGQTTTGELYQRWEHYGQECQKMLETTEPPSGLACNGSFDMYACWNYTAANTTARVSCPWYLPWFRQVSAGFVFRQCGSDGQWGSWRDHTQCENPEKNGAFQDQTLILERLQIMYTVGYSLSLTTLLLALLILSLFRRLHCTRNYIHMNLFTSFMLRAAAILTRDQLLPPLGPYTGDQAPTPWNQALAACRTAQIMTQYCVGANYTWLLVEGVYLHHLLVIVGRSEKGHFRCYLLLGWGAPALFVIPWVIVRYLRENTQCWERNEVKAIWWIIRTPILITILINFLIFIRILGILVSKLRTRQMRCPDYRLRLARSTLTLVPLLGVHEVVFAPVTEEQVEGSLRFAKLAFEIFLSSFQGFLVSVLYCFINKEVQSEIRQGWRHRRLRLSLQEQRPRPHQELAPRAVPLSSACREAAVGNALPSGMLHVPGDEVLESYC

[2] = biological target: T1, endogenous mouse GIPR (mouse (endogenous in primary mouse adipocytes and Neuro-2a cells)); remark: listed apart in the source
[3] = biological target: T2, endogenous rat GIPR in INS1 832/13 cells (rat (endogenous in INS1 832/13)) (UniProt P43219)
T2 sequence: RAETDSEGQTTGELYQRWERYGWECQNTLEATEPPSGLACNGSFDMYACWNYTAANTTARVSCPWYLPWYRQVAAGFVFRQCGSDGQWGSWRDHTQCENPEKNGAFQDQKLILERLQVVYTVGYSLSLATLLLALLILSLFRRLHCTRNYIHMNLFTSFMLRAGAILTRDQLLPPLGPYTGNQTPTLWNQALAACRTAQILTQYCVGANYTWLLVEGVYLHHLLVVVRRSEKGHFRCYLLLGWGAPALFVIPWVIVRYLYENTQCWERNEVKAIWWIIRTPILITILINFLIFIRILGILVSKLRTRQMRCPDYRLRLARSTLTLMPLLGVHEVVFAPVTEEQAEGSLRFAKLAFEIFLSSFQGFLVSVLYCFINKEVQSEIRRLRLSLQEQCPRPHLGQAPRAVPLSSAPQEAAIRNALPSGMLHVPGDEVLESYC

Row | Binder | EC50 of cAMP production in mouse primary adipocytes differentiated in vitro [1] | EC50 of glycerol release (lipolysis) from primary mouse adipocytes differentiated in vitro [1] | EC50 of cAMP production in mouse Neuro-2a neuroblastoma cells [2] | EC50 of cAMP production in rat INS1 832/13 cells [3]
1 | YAEGTFISDYSIAMDKIRQQDFVNWLLAQRGKKSDWKHNITQ (ligand) [mouse GIP] | 3.8 nM | 13 nM | 6.35 nM | –
2 | YAEGTFISDYSIAMDKIRQQDFVNWLLAQKGKKNDWKHNLTQ (ligand) [rat GIP] | – | – | – | 0.99 nM
